Where only a bound is given, the exact number is not on record here.

Assay in all cases: cell-based or functional assay
In assay [1] the target is Env of 92 subtype B viruses.
Assay [2] concerns the target HIV-1 Env (gp120) of 4 primary HIV-1 isolates or molecular clones on infected CEM-NKr-CCR5-LucR CD4 T cells.
Assay [3] concerns the target 22 primary HIV-1 isolates or clones (mean over all viruses of Table 13).

B1: PGT121.56 (antibody, human IgG1, lambda)
heavy: QMQLQESGPGLVKPSETLSLTCSVSGASISDSYWSWIRRSPGKGLEWIGYVHKSGDTNYSPSLKSRVNLSLDTSKNQVSLSLVAATAADSGKYYCARTLHGRRIYGIVAFNEWFTYFYMDVWGNGTQVTVSSASTKGPSVFPLAPSSKSTSGGTAALGCLVKDYFPEPVTVSWNSGALTSGVHTFPAVLQSSGLYSLSSVVTVPSSSLGTQTYICNVNHKPSNTKVDKKVEPKSCDKTHTCPPCPAPELLAGPDVFLFPPKPKDTLMISRTPEVTCVVVDVSHEDPEVKFNWYVDGVEVHNAKTKPREEQYNSTYRVVSVLTVLHQDWLNGKEYKCKVSNKALPLPEEKTISKAKGQPREPQVYTLPPSREEMTKNQVSLTCLVKGFYPSDIAVEWESNGQPENNYKTTPPVLDSDGSFFLYSKLTVDKSRWQQGNVFSCSVLHEALHSHYTQKSLSLSPGK
light: not shown
Consider B1, for which, in assay [1], the Coverage (%) was found to be 62% and the Median IC95 (neutralization) is 0.265 µg/mL.

B2: PGT121.60 hIgG1/hLambda (antibody)
heavy: QMQLQESGPGLVKPSETLSLTCSVSGASISDSYWSWIRRSPGKGLEWIGYVHKSGDTNYNPSLKSRVHLSLDTSKNQVSLSLTGVTAADSGKYYCARTLHGRRIYGIVAFNEWFTYFYMDVWGTGTQVTVSSASTKGPSVFPLAPSSKSTSGGTAALGCLVKDYFPEPVTVSWNSGALTSGVHTFPAVLQSSGLYSLSSVVTVPSSSLGTQTYICNVNHKPSNTKVDKKVEPKSCDKTHTCPPCPAPELLAGPDVFLFPPKPKDTLMISRTPEVTCVVVDVSHEDPEVKFNWYVDGVEVHNAKTKPREEQYNSTYRVVSVLTVLHQDWLNGKEYKCKVSNKALPLPEEKTISKAKGQPREPQVYTLPPSREEMTKNQVSLTCLVKGFYPSDIAVEWESNGQPENNYKTTPPVLDSDGSFFLYSKLTVDKSRWQQGNVFSCSVLHEALHSHYTQKSLSLSPGK
light: not shown
In assay [2], B2 showed an EC50 of killing infected cells, median of over 100 µg/mL and a proportion of infected cells killed (Emax), median of 18%. In assay [1], this molecule registered a Coverage (%) of 59.8% and a Median IC95 (neutralization) of 0.177 µg/mL. For the same molecule, in assay [3], the EC50 (µg/mL), killing of HIV-infected cells (Mean; mean over all viruses) turned out to be 1.03 µg/mL and the Emax, killing of HIV-infected cells (Mean; mean over all viruses) worked out at 56%.
